The text below walks through data of patent US20110293610A1 (published 2011).

Assay [1] has as its target T1, biotinylated B Lymphocyte Stimulator, soluble form (human, UniProt Q9Y275 134-285, biotinylated with NHS-biotin, molar ratio 20:1 biotin:protein).
T1 construct: also called bio-B Lymphocyte Stimulator; free B Lymphocyte Stimulator
Description: phage scFv, receptor binding inhibition on IM9 cells. The procedure:
Fifty-five μl of each appropriate phage supernatant was added to each well and the final volume in each well was 65 μl. Plates were then incubated at room temperature for 30 minutes.
Plates were washed three times in PBST and three times in PBS, tapped dry and 50 μl of streptavidin-Delfia (Wallac) was added to each well at 1:1000 dilution in the Manufacturer's assay buffer. The plates were then incubated at room temperature for 1 hour and washed six times in Delfia wash solution (Wallac). After tapping the plates dry, 100 μl per well of Delfia enhancement solution (Wallac) was added. The plates were gently tapped to encourage micelle formation, incubated at room temperature for 10 minutes, and fluorescence read on a Wallac 1420 workstation at […].

A further assay has as its target T2, TRAIL (human, UniProt P50591 114-281).
T2 construct: also called TNF-related apoptosis inducing ligand
Description: phage ELISA.

In the next assay the target is T3, TNF-alpha (human, UniProt P01375 77-233).
T3 construct: also called TNFα; TNF-α
T3 sequence (P01375 77-233 limits assumed): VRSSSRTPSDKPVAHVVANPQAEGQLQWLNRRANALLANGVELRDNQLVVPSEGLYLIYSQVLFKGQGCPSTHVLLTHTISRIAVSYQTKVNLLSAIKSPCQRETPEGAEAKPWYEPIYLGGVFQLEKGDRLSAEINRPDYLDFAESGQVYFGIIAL
Description: phage ELISA.

Another assay addresses T4, TNF-beta (human, UniProt P01374 35-205).
T4 construct: also called TNFβ; Tumour Necrosis Factor-beta
T4 sequence (looked up): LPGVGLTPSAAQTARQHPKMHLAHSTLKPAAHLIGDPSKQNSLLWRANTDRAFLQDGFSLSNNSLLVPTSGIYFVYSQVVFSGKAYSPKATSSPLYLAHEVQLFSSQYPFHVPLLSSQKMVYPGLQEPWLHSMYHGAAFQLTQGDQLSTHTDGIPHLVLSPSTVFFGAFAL
The assay can be described thus: phage ELISA.

The target in the next assay is LIGHT (human, UniProt O43557 74-240, limits assumed). The assay can be described thus: phage ELISA.
Sequence of LIGHT (O43557 74-240 limits assumed): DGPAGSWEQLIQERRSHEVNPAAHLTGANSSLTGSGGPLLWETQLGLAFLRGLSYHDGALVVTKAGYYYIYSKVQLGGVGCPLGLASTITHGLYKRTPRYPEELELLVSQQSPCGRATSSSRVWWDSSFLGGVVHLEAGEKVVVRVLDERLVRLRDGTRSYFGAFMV
Assay [2] deals with T5, B Lymphocyte Stimulator, soluble form (human) (human, UniProt Q9Y275 134-285, biotinylated with NHS-biotin where used as biotinylated B Lymphocyte Stimulator).
T5 construct: Coated on plastic, captured on streptavidin plates, amine-coupled to a CM5 chip or free in solution, depending on the assay; also called BLyS; immobilized B Lymphocyte Stimulator
Description: phage ELISA.

T2 sequence (P50591 114-281 limits assumed): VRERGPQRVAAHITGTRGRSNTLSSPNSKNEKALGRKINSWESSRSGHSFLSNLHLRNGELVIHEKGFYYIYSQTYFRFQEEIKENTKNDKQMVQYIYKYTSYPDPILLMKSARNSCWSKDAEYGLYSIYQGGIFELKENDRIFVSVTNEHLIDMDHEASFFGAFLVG

B1: I051C04 (scFv)
scFv: QVQLQQSGAEVKKPGSSVKVSCRTSGGTFSNYGLSWVRQAPGQGLEWMGGVIPISSTIKYGQKFQDRLTIAADDLTNTTFMELSSLRPEDTAVYYCARAATTSQKHNKYAYYFYGMDVWGQGTMVTVSSGGGGSGGGGSGGGGSAQSALTQPASVSGSPGQSITISCTGTSSDVGGYNYVSWYQQHPGKAPKLMIYEVSNRPSGVSNRFSGSKSGNTASLTISGLQAEDEADYYCSSYTSSSTLVFGGGTKVTVLG
notes: also called 1051C04
For the molecule B1, the binding result in assay [1] is “binds”.

B2: I068C06 (scFv)
scFv: EVQLVQSGAEVKKPGSSVKVSCKASGGTVSSRTISWVRQAPGQGLEWMGGSLPPSGAPIYAQKFQGRVAITADALTNTAFMELRSLKSDDTAVYYCARDQGRYLDLWGKGTLVTVSSGGGGSGGGGSGGGGSAQAVLTQPSSVSGAPGQRVTISCTGSRSNIGAGYDVHWYQQLPGTAPKLLIYGNSNRPSGVPDRFSGSKSGTSASLAITGLQADDEADYYCQSYDTSLRGLFGTGTKVTVLG
notes: also called I0068C06; I0068CO6
On to B2, for which the binding result with TRAIL, in the assay with TNF-alpha, in the assay with TNF-beta and with LIGHT was “no binding” in each case.

B3: I022D01 (scFv)
scFv: EVNLRESGGGVDQPGRSLRLSCAASGFTFSSYGMHWVRQAPGKGLEWVAVISYDGSNKYYADSVKGRFTISRDNSKNTLYLQMNSLRAEDTAVYYCAKDGYYDILTGYSYYGMDVWGQGPMVAVSSGGGGSGGGGSGGGGSSELTQDPAVSVALGQTVRITCQGDSLRSYYTNWFQQKPGQAPLLVVYAKNKRPSGIPDRFSGSSSGNTASLTITGAQAEDEADYYCNSRDSSGNHVVFGGGTKLTVLG
Regarding B3, the binding result in assay [1] was “binds”.

B4: I031C07 (scFv)
scFv: EVQLVQSGAEVKKPGSSVKVSCRASGGSFIDGSINWLRQAPGQGLEWVGGTIPLANRANYAQKFRDRVTITADELTAIVFLELTSLRSDDTALYYCARSSPPRWYDALTGDSSYHSAMDVWGQGTMVTVSSGGGGSGGGGSGGGGSAQSALTQPPSASGSPGQSVTISCSGTSSDIGDSNSVSWYQQHPGKAPKLLIYEVTKRPSGVPDRFAGSRSDNTASLTVSGLQTEDEADYYCSSSAARNHLVFGGGTKVTVLG
For B4, the binding result in assay [1] is recorded as “binds”.

B5: I031G08 (scFv)
scFv: QVQLVQSGAEVKKPGSSVKVSCRASGGSFIDDSINWLRQAPGQGLEWVGGTIPLANRANYAQKFRDRATITADELTATVFLELTSLRSDDTALYYCARSSPPKWYDALTGHSSYHSAMDVWGRGTLVTVSSGGGGSGGGGSGGGGSAQSVLTQPPSASGTPGQRVTISCSGTNSNIGGNTVNWYQQLPGTAPRLLIYSNNQRPSGVPDRFSGSKSGTSASLAISGLQSEDEADYYCAARDDRLNAHVVFGGGTKVTVLG
With B5, the binding result in assay [1] is given as “binds”.

B6: I012A06 (scFv)
scFv: QVQLQESGPGVVKPSQTLSLTCTVSGVSISSDSYYWSWIRQPAGKGPEWIGRIYPTGSTNYNPSLKSRVTISVDTSKNQFSLQLTSVTAADTAVYYCARGRWDYDLLTGEHLGYYFDYWGRGTLVTVSSGGGGSGGGGSGGGGSALSSELTQDPAVSVALGQTVRITCQGDTLRNYYASWYQQKPGQAPVLVIHSRNNRPSGIPDRFSGSSSGTTASLTITGSQAEDEADYYCNSRDSSGNVIFGGGTKLTVLG
Turning to B6, in assay [1], the binding result is on record as “binds”.

B7: I071B03 (scFv)
scFv: QVQLQQSGAEVKKPGASVKVSCKASGYTFTKYTMHWVRQAPGQGPEWMGWINGGSGDTKYSRKFQGRVTITKDTSASAAYMELSSLGSEDTALYYCARATYDPLTGYSFDGFDIWGQGTMVTVSSGGGGSGGGGSGGGGSQSVLTQPASVSGSPGQSITISCTGTSSDVGGYNYVSWYQQHPGKAPKLMIYEGSKRPSGVSNRFSGSKSGNTASLTISGLQAEDEADYYCSSYTTRSTRVFGGGTKLTVLD
Take B7: the binding result in assay [2] is listed as “binds”; with TRAIL, “no binding”; in the assay with TNF-alpha, “no binding”; in the assay with TNF-beta, “no binding”; in the assay with LIGHT, “no binding”.

B8: I016F02 (scFv)
scFv: GVQLVESGAEVKKPGASVKVSCRTSGYTFTSNSFSWVRQAPGQGLEWMGGIIPIFGTANYAQKLQGRVTITADELTRTVYMDLSSLRSEDTAVYYCATGMGDHYGMDVWGRGTLVTVSSGGGGSGGGGSGGGGSQSVLTQPASVSGSPGQSITISCTGTSSDVGGYNYVSWYQQHPGKAPKLMIYEGSKRPSGVSNRFSGSKSGNTASLTISGLQAEDEADYYCSSYTTRSTRVFGGGTKLTVLG
On to B8, for which the binding result in assay [1] is reported as “binds”.

B9: I031G10 (scFv)
scFv: QVQLVQSGAEVKKPGSSVKVSCRVSGGSFTDDSINWLRQAPGQGLEWVGGTIPLANRANYAQKFRDRVTITADELTATVFLELTSLRSDDTALYYCARSSPPKWYDALTGDSSYHSAMDVWGRGTLVTVSSGGGGSGGGGSGGGGSAQSVVTQPPSVSAAPGQKVTISCSGSTSNIGRNYVSWYQQLPGTATKLLIYDNNKRPSGIPDRFSGSKSGTSATLGITGLQTGDEADYYCGTWDSSLRIYVFGTGTKVTVLG
Take B9: the binding result in assay [1] is recorded as “binds”.

B10: I029F11 (scFv)
scFv: QVQLVQSRAEVKRPGASVKVSCKASGYRFGSYGITWVRQAPGQGLEWMGWISTRYGDTKSAQKVEGRVTLTTDTSTSTAYMELRSLRSDDTAVYYCARDGSYDILTGYYIDNYMDVWGRGTLVTVSSGGGGSGGGGSGGGGSQSVLTQPPSASGTPGQRVTISCSGSSSNIGSNTVNWYQRLPGAAPQLLIYNNDQRPSGIPDRFSGSKSGTSGSLVISGLQSEDEADYYCASWDDSLNGRVFGGGTKLTVLG
Consider B10, for which the binding result in assay [1] is recorded as “binds”.

B11: I050B11 (scFv)
scFv: QVQLVQSGVEVKKPGASVKVSCKASGYTFSNHGISWVRQAPGQGLEWVGWISGHDDSTKYAQKFQGRVTMTADTSTSTAYIELRSLKSDDTAVYYCARPFYDTLTSYVFQYFDHWGQGTMVTVSSGGGGSGGGGSGGGGSALETTLTQSPDTLSLSPGERATLSCRASQSVTRGWVAWYQQKPGQAPRLLMYGTSRRATGVPDRFSGSESGTDFTLTISRLEPEDFAVYYCQQYATSPRTFGQGTRLEIKR
For the molecule B11, the binding result in assay [1] is reported as “binds”.

B12: I078D02 (scFv)
scFv: QVQLQQSGAEVKKPGASVKVSCKASGYTFTSYGISWVRQAPGQGLEWMGWISAYNGNTNYAQKLQGRVTMTTDTSTSTAYMELRSLRSDDTAVYYCARVYYDILTGYNLFFDYWGKGTMVTVSSGGGGSGGGGSGGGGSQSVLTQPASVSGSPGQSITISCTGTSSDVGGYNYVSWYQQHPGKAPKLMIYEGSKRPSGVSNRFSGSKSGNTASLTISGLQAEDEADYYCSSYTTRSTRVFGGGTKLTVLG
In the case of B12, the binding result is given as “binds” in assay [2]; “no binding” with TRAIL; “no binding” with TNF-alpha; “no binding” with TNF-beta; “no binding” with LIGHT.

B13: I078H08 (scFv)
scFv: QVQLVQSAAEVKKPGASVKVSCKASGYTFTSYGISWVRQAPGQGLEWMGWISAYNGNTNYAQKLQGRVTMTTDTSTSTAYMELRSLRSDDTAVYYCARVYYDILTGYNLFFDYWGRGTTVTVSSGGGGSGGGGSGGGGSQSVLTQPASVSGSPGQSITISCTGTSSDVGGYNYVSWYQQHPGKAPKLMIYEGSKRPSGVSNRFSGSKSGNTASLTISGLQAEDEADYYCSSYTTRSTRVFGGGTKLTVLG
With B13, the binding result in assay [2] is on record as “binds”; with TRAIL, “no binding”; with TNF-alpha it was “no binding”; with TNF-beta it was “no binding”; with LIGHT, “no binding”.

B14: I026C04-K (scFv)
scFv: QVQLVQSGAEVKKPGSSVKVSCRASGGSFNKHAISWVRQAPGRGLEWMGGILPMYGTANYAQKFQGRVTITADKLTNTVYMDLSRLRYEDTAVYYCARELGLSIVGATTGALDMWGKGTLVTVSSGGGGSGGGGSGGGGSAQSVLTQPPSVSAAPGQKVTISCSGSSSNIGNNYVSWYQQIPGTAPKLLIYENNKRPSGIPDRFSGSKSGASATLDITGLQTGDEADYYCGTWHSSQVVFGGGTKLTVLG
As for B14, the binding result in the assay with TRAIL, in the assay with TNF-alpha, with TNF-beta and in the assay with LIGHT was “no binding” throughout.

B15: I067F05 (scFv)
scFv: QVQLQQSGAEVKKPGSSVKVSCKASGGTFSSYAISWVRQAPGQGLEWMGRIIPIVNMANYAQKFQGRVTLTADKSTGTAYMELTSLRSEDTAVYYCARENYDSLTGYYGAFDIWGKGTMVTVSSGGGGSGGGGSGGGGSQSVLTQPASVSGSPGQSITISCTGTSSDVGGYNYVSWYQQHPGKAPKLMIYEGSKRPSGVSNRFSGSKSGNTASLTISGLQAEDEADYYCSSYTTRSTRVFGGGTKLTVLG
On to B15, for which the binding result in assay [2] is “binds”; in the assay with TRAIL it was “no binding”; with TNF-alpha it was “no binding”; with TNF-beta, “no binding”; in the assay with LIGHT, “no binding”.
